Reference: article PMC7094161, “An Alternative Pin1 Binding and Isomerization Site in the N-Terminus Domain of PSD-95” (Frontiers in Molecular Neuroscience, 2020)

Columns and labels:
Assay in all cases: FRET or BRET; FRET/FLIM: EGFP fluorescence lifetime of EKAR constructs (WW domain and peptide on one chain) in fixed, mounted COS cells; serum in the medium
Details in all cases: partners not purified
[1] = target: T1, PSD-95 T19 peptide of the EKAR construct (UniProt P31016 14-24)
T1 construct: PSD-95 peptide around T19 put in place of the CDC25C peptide; 11 residues, the text says 10-mer; On one chain with m14 (see its note); also called EKAR T19; EKAR_(cyto)T19; source: COS cells, transfected, in cells
T1 peptide (looked up): YQDEDTPPLEH

[2] = target: T2, PSD-95 S25 peptide of the EKAR construct (UniProt P31016 20-30)
T2 construct: PSD-95 peptide around S25 put in place of the CDC25C peptide; On one chain with m14 (see its note); also called EKAR S25; source: COS cells, transfected, in cells
T2 peptide (looked up): PPLEHSPAHLP

[3] = target: T3, PSD-95 S35 peptide of the EKAR construct (UniProt P31016 30-40)
T3 construct: PSD-95 peptide around S35 put in place of the CDC25C peptide; On one chain with m14 (see its note); also called EKAR S35; source: COS cells, transfected, in cells
T3 peptide (looked up): PNQANSPPVIV

B1: Pin1 WW domain of the EKAR construct (domain or fragment, UniProt Q13526 5-39, looked up)
chain: EKLPPGWEKRMSRSSGRVYYFNHITNASQWERPSG
notes: Pin1 WW domain as in the EKAR construct (Harvey et al., 2008); source: COS cells, transfected, in cells
- EGFP fluorescence lifetime [1]: 1.72 ns
- EGFP fluorescence lifetime [2]: 1.69 ns
- EGFP fluorescence lifetime [3]: 1.81 ns
